{
  "source": "the nanobody polyreactivity screen of Harvey et al. (2022)",
  "data": [
    {"assay": "yeast display, Sf9 membrane polyspecificity reagent, FACS + sequencing; frameworks hold sequencing errors", "method_in_brief": "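Using colony PCR, genes from sorted yeast display clones were amplified, then sequenced on MiSeq at 2 × 250 and filtered by CDR length. The clones had been stained with 10% biotinylated, detergent-solubilized Sf9 membrane reagent for 1 hour at 4 °C and sorted by FACS into low and high (top ~1%) gates on anti-HA and streptavidin fluorescence. Polyreactivity labels come from the gate of origin.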", "values": [
      {"sequence": "QVQLQESGAGLVQAGGSLRLSCAASGSISAVGAMCWYRQAPGKEREFAASVNWATNTNYADSVKGRFTISRDNAKNTLYLQMNSLKPEDTAVYYCAVLPDWETRHDYWGHGTQVTVSS", "polyreactivity (PSR sort gate)": "low polyreactivity"},
      {"sequence": "QVQLQESGCGLVQAGGSLRLTCAASGSISYPRTMGWSRQAPGKEREFVAGIGVGGTTYYADSVIGRFTISRDNAKNTVYLQMNSLKPEDTAVYYCAVYSGDDYYHDYWGQGTQVTVSS", "polyreactivity (PSR sort gate)": "low polyreactivity"},
      {"sequence": "QVQLQESGCGLVQVGGSLRLSCAASGTTFIYGFLGWNRQAPGKERELVASINLGGFTNYADSVKGRFTISRDNAKNTVYLQMISLNPEDSAVFYCAAYVVTGQNYGYWGKGTQVTVSS", "polyreactivity (PSR sort gate)": "low polyreactivity"},
      {"sequence": "QVQLQESGDGLVQAGGSLRLSCAASGNIYDADIMGWYRQAPGKERELVTSITDGGSTNYADSVKGRFTISRDNAKNTVYLQMNSLKPEDTAVYYCAAIAYPDIPTSFDYNSDYSYWGQGTQVTVSS", "polyreactivity (PSR sort gate)": "low polyreactivity"},
      {"sequence": "QVQLQESGGDLEQAGGSLRLSCTASGTNSDVRVMGWYRQAPGKERELVATISYVTITYYADSVKGRLTISRDSEKHRVSADDEPETGRYRGVLLRYYWGLGTQVTVSS", "polyreactivity (PSR sort gate)": "low polyreactivity"},
      {"sequence": "QVQLQESGGGLAQAGGSLRLICAASGTLFPADSMGWYRQAPGKERELVAGITSGANTYYADSVNGRFTISHDNAKQTVYLQMDSLIPEDIAVYYCAAPGSSTYDLESWGQGTQVNVSS", "polyreactivity (PSR sort gate)": "high polyreactivity"},
      {"sequence": "QVQLQESGGGLAQAGGSLRLSCAASGNIFDADIMGWYRQAPGKERELVGSITDGGSTNYVDSVKGRFTISRDNAKNTVHLQMNSLKPEDTAVYYCAAIAYPDIPTYFDYDSDCFNWGHGTQVTVSS", "polyreactivity (PSR sort gate)": "high polyreactivity"},
      {"sequence": "QVQLQESGGGLAQAGGSQRLSCAASGTIFAADSMGWYRQAPGKERELVAGITSGANTYYADSVKGRYTISHDNAKKTVYLQMDSLIPEAIAVYYCAAPGSTTYDLEYWGQGTQVTVSS", "polyreactivity (PSR sort gate)": "high polyreactivity"},
      {"sequence": "QVQLQESGGGLEQAGGSLRLSCAASGYIFPTAIKGWYRQAPGKERKLVAAINPGSNTYYADSVKGRFTFSRDNANNSVYLQMNSLKPEDAAVYYCGVSIWLVGTLDYWGQGTQVTVSS", "polyreactivity (PSR sort gate)": "low polyreactivity"},
      {"sequence": "QVQLQESGGGLEQAGGSLRLSCAASGYITDIGTMGWYRQAPGKEREFVATIVVGSTTNYADSVKGRFTISRDNAKNTVYLQPESGRYRGVLLRGWLLAVGNFTYWGQGTQETVSS", "polyreactivity (PSR sort gate)": "low polyreactivity"},
      {"sequence": "QVQLQESGGGLEQAGGSLRMSCAANGNIFDADIVGRYRQAPGKKRELVASITDGGITNYADSVKGRFTISRDNAKYTVYLQMNSQNPEDTAVYYCAAIAYPDIPTYFDYDSDFFYWGQGTQVTVSS", "polyreactivity (PSR sort gate)": "high polyreactivity"},
      {"sequence": "QVQLQESGGGLEQAGGSLRMSCAANGNIFDSDIVGRYRQAPGKKRELVASITDGGITNYADSVKGRFTISRDNAKYTVYLQMNSQNPVDTAVYYCAAIAYPDIPTYFDYDSDFFYWGQGTQVTVSS", "polyreactivity (PSR sort gate)": "high polyreactivity"},
      {"sequence": "QVQLQESGGGLLQAGGSLRLSCAASGNFFDADIMGWYRQAPGKERELVASITDGGSTNYADRVKGRFTISRGNTKNTVYLLMNCLKPDDTSVYYCAAIAYPDIPTYFDYNSDYFYGGQGTQVTVSS", "polyreactivity (PSR sort gate)": "high polyreactivity"},
      {"sequence": "QVQLQESGGGLLQAGGSLRLSCAASGNIFLSIFMGWYRQAPGKEREFVAGIGSGTNTNYADSVKGRFTISRDNAKNTVYLQMNSLKPEDTAGYYSAAGRFGLYYHGYWGLGTQVTVSS", "polyreactivity (PSR sort gate)": "high polyreactivity"},
      {"sequence": "QVQLQESGGGLMQAGGSLRLSCTASGTISDVRVMGWYRQAPGRERELVATISYVTITYYADSVKGRFTISRDSEKHRVSADDEPETGRYRGVLLRYYWGLGTQVTVSS", "polyreactivity (PSR sort gate)": "low polyreactivity"},
      {"sequence": "QVQLQESGGGLMQAGGSQRLSCAASGSISYYSDMCWYRQAPGKEREFVAGIGYGTTTNYADSVKGRFTTSRDNAKNTVYLQMISMKPEDTAVYYCAAYQGNGYEFYYWGQGTQVTVRS", "polyreactivity (PSR sort gate)": "low polyreactivity"},
      {"sequence": "QVQLQESGGGLMQAGGSQRLSCAESGSISYYSDMGWYRQAPGKEREFVAGIGYGTTTNYADSVKGRFTTSRDNAKNTVYLQMISMKPEDTAVYSCAAYQGNGYEFYYWGQGTQVTVRS", "polyreactivity (PSR sort gate)": "low polyreactivity"}
    ]}
  ]
}
